According to US20250243272A1 (GOOD T CELLS, published 2025):
Changes are numbered by the printed parent chain.

T1: Lrig-1 protein expressed on the surfaces of L cells (human, UniProt Q96JA1 35-1093)
T1 construct: no signal peptide limits are stated; also called L cells that stably express Lrig-1
T1 sequence: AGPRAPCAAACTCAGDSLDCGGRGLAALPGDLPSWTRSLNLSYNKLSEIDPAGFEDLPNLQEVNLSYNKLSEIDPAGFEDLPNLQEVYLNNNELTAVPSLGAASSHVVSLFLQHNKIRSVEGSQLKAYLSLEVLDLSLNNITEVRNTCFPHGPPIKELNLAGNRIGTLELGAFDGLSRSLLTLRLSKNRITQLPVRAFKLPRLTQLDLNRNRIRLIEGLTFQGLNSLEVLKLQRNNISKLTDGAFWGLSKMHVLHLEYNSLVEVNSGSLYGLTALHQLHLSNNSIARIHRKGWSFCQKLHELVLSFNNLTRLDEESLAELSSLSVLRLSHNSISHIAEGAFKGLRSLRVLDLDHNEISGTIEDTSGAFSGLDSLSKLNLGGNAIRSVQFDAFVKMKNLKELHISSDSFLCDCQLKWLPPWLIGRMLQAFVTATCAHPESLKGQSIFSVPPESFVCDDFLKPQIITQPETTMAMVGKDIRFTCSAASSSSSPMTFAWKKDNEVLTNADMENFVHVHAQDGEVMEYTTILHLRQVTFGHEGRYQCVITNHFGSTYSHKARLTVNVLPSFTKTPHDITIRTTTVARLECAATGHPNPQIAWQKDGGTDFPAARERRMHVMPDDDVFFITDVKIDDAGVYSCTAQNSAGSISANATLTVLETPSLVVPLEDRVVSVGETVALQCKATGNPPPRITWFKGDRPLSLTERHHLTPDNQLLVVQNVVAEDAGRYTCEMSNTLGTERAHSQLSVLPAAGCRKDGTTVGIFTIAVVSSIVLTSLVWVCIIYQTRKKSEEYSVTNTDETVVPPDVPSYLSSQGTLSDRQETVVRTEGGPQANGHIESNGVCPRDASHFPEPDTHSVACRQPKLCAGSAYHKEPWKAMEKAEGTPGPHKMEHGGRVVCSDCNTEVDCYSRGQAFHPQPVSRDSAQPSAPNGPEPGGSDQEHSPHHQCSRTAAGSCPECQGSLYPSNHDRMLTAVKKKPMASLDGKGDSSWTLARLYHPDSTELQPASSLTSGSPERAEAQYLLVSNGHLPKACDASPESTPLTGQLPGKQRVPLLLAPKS

B1: GTC210-01 clone (Production Example 1) (antibody, mouse IgG2a, V domains shown)
VH: EVQLLESGGGLVQPGGSLRLSCAASGFTFSGYDMSWVRQAPGKGLEWVSLIYPDSGNKYYADSVKGRFTISRDNSKNTLYLQMNSLRAEDTAVYYCARDAGLSWAGAFDYWGQGTLVTVSS
VL: QSVLTQPPSASGTPGQRVTISCSGSSSNIGSNYVTWYQQLPGTAPKLLIYSDSHRPSGVPDRFSGSKSGTSASLAISGLQSEDEADYYCGSWDYSLSAYVFGGGTKLTVLR
notes: the printed full chains carry mouse constant regions
B2: GTC110-04 clone (Production Example 8) (antibody, mouse IgG2a, V domains shown)
VH: EVQLLESGGGLVQPGGSLRLSCAASGFTFSNYAMSWVRQAPGKGLEWVSVISHGGGSTYYADSVKGRFTISRDNSKNTLYLQMNSLRAEDTAVYYCARVISNCHLGVCYYSNGMDVWGQGTLVTVSS
VL: B1 VL with S31N, Y33D, T35Y, H54Q, Q80R, S91T, A98G
notes: also called GTC110-04 antibody; GTTC110-04 antibody
B3: GTC110-03 clone (Production Example 7) (antibody, mouse IgG2a, V domains shown)
VH: EVQLLESGGGLVQPGGSLRLSCAASGFTFSNYAMSWVRQAPGKGLEWVSAIYPGGGSIYYADSVKGRFTISRDNSKNTLYLQMNSLRAEDTAVYYCARDILPCPWGRCYYDYAMDVWGQGTLVTVSS
VL: B1 VL with G24D, Y33T, T35S, S51A, S53N, H54N, Q80R, S91T, A98G
B4: GTC 210-04 clone (Production Example 4) (antibody, mouse IgG2a, V domains shown)
VH: EVQLLESGGGLVQPGGSLRLSCAASGFTFSNYDMSWVRQAPGKGLEWVSSISPSSGSIYYADSVKGRFTISRDNSKNTLYLQMNSLRAEDTAVYYCAKDLDAFWRPSFDYWGQGTLVTVSS
VL: B1 VL with S23T, S31N, Y33N, T35N, Q80R, Y94D
notes: The printed heavy variable region is the same as that of GTC110-01
B5: GTC210-03 clone (Production Example 3) (antibody, mouse IgG2a, V domains shown)
VH: EVQLLESGGGLVQPGGSLRLSCAASGFTFSSYDMSWVRQAPGKGLEWVSGISPDGSNIYYADSVKGRFTISRDNSKNTLYLQMNSLRAEDTAVYYCAKVGLRCRYEACSYAYGMDVWGQGTLVTVSS
VL: B1 VL with T35S, Q80R, G90A, S91T, Y94S, S97N, A98G
B6: GTC210-02 clone (Production Example 2) (antibody, mouse IgG2a, V domains shown)
VH: EVQLLESGGGLVQPGGSLRLSCAASGFTFSNYYMSWVRQAPGKGLEWVSGISPGDSSTYYADSVKGRFTISRDNSKNTLYLQMNSLRAEDTAVYYCAKGLYSNPNEPFDYWGQGTLVTVSS
VL: B1 VL with S23T, T35S, S51D, H54Q, Q80R, S91T, S97N, A98G
B7: GTC110-02 clone (Production Example 6) (antibody, mouse IgG2a, V domains shown)
VH: EVQLLESGGGLVQPGGSLRLSCAASGFTFSDYYMSWVRQAPGKGLEWVSGISHDSGSKYYADSVKGRFTISRDNSKNTLYLQMNSLRAEDTAVYYCARHWTTFDYWGQGTLVTVSS
VL: B1 VL with Y33N, S51A, D52N, H54N, Q80R, S91A

Target: T1, Lrig-1 protein expressed on the …
Experiment: FACS on L cells stably expressing Lrig-1, eFlour 670-conjugated anti-mouse secondary antibody
Experimental: In order to examine whether the monoclonal antibodies according to the present invention, produced in Production Examples 1 to 8, well recognize Lrig-1, each of the antibodies of Production Examples 1 to 8 was bound to L cells that stably express Lrig-1, and then an eFlour 670-conjugated secondary antibody capable of recognizing mouse antibodies was added thereto. Next, the binding affinities of the monoclonal antibodies for the Lrig-1 protein were analyzed using FACS.

Row | Binder | binding result
1 | B1 | binds
2 | B2 | binds
3 | B3 | binds
4 | B4 | binds
5 | B5 | binds
6 | B6 | binds
7 | B7 | binds
